# Laboratory results published in US20220409550A1.
# How the values were obtained:
# [1] = target: murine PD-L1 on CHO-K1 cells (murine) (UniProt Q9EP73); experiment: cell-based or functional assay
# [2] = target: murine PD-L1 (50010-M08H, Sino biological) (murine) (UniProt Q9EP73); experiment: SPR
# [3] = target: murine PD-L2 (50804-M08H, Sino Biological) (murine) (UniProt Q9WUL5); experiment: SPR
# murine PD-L2 (50804-M08H, Sino Biological) (murine), sequence (Q9WUL5 20-219, stated change not applied): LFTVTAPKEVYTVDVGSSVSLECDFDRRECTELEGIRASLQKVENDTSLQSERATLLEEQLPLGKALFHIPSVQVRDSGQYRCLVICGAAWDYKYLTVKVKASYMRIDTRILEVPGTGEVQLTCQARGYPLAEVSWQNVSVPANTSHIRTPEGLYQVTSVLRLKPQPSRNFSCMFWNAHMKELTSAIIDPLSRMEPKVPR
# murine PD-L1 (50010-M08H, Sino biological) (murine), sequence (Q9EP73 19-238, stated change not applied): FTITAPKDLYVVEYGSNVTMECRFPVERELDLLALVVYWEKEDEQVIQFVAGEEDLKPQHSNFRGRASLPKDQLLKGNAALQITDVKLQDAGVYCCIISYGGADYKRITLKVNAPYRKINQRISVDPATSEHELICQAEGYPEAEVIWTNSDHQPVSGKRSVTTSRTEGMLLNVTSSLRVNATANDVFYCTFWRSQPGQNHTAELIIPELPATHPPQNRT
# murine PD-L1 on CHO-K1 cells (murine), sequence (Q9EP73 19-290): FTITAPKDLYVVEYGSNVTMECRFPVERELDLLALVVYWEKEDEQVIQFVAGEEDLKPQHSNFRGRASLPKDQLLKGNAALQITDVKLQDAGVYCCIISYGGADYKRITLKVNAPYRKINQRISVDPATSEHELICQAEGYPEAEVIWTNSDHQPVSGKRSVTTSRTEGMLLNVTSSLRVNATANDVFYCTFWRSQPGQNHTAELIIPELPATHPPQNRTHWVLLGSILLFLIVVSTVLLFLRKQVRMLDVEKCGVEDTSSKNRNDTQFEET
substance,measurement,setting,value
PD-1-decorated nanocage (PdNC) (from UniProt P02794 1-183),"half maximal effective concentration (EC50), NFAT-mediated luciferase expression, bioluminescent PD-1/PD-L1 blockade bioassay",[1],0.761 nM
same,Kd,[2],3.81E-10 ?
same,Kd,[3],2.07E-9 ?
